Laboratory results: patent US20040018971A1 (published 2004)

Tests used:
HLA-A*0201 [1] = target: T1, HLA-A*0201 (human); test: inhibition of 125I-labelled standard peptide binding to purified HLA, gel filtration; ratio = IC50 of standard / IC50 of test peptide
T1 construct: also called HLA-A2.1

HLA-A*0201 [2] = target: T2, HLA-A*0201 (human); test: competitive inhibition of 125I-labeled probe peptide binding to purified HLA-A*0201
T2 construct: also called HLA-A2.1; A2.1

Row | Binder | relative binding ratio (HLA-A*0201 [1]) | IC50 (HLA-A*0201 [2])
1 | SLTLQGLGI [HER2/neu peptide, position 442, 9 amino acids] | 0.0003 ratio to standard peptide | –
2 | SLTEILKGGV (also called Her2/neu.144) [HER2/neu peptide, position 144, 10 amino acids] | 0.015 ratio to standard peptide | –
3 | SLTEILKGGV [Her2/neu.144] | – | ≤ 500 nM
